“And” between values parts separate entries of the source, which are not always exact repeats. Identical values can stand only once.

First the molecules themselves.
B1: Lysozyme C, P61626 (parent)
chain: MKALIVLGLVLLSVTVQGKVFERCELARTLKRLGMDGYRGISLANWMCLAKWESGYNTRATNYNAGDRSTDYGIFQINSRYWCNDGKTPGAVNACHLSCSALLQDNIADAVACAKRVVRDPQGIRAWVAWRNRCQNRDVRQYVQGCGV

The variants in the first data set derive from B1. Particulars: Homo sapiens; pH 2.7; 64.9 °C; Thermal; DSC; glycine 0.05 M; reversible: yes; structure 1LZ1; whole UniProt chain shown.
Turning to I74V, the “ddG of mutation (higher = less stable)” value was 1.2 kcal/mol.
Turning to I74M, the “ddG of mutation (higher = less stable)” value was 1.77 kcal/mol.
On to I74T, for which the “ddG of mutation (higher = less stable)” value worked out at 3.63 kcal/mol.
As for I74L, the “ddG of mutation (higher = less stable)” value is 0.1 kcal/mol.
Still for that read-out and setting: the value for I74F was 4.09 kcal/mol; that for I77F was 0.81 kcal/mol.

Staying with this data set, now noted: Homo sapiens; pH 2.7; Thermal; DSC; glycine 0.05 M; reversible: yes; structure 1LZ1; whole UniProt chain shown.
The term Tm denotes the temperature at the midpoint of the melting transition. Regarding I74V, the Tm was 61.3 °C and 64.9 °C; the “change of melting temperature, mutant - wild type (higher = more stable)” value (from here on “change of melting temperature, mutant”) is -3.6 °C; the “heat capacity change of unfolding” value came out at 1.34 kcal/mol/K; the “unfolding enthalpy (calorimetric)” value came to 114 kcal/mol. The “unfolding enthalpy (van 't Hoff)” value was 117 kcal/mol.
For I74M, the “change of melting temperature, mutant” value was -5.8 °C; the “heat capacity change of unfolding” value was 1.63 kcal/mol/K and 1.53 kcal/mol/K; the “unfolding enthalpy (calorimetric)” value was 97.3 kcal/mol and 106 kcal/mol; the “unfolding enthalpy (van 't Hoff)” value is 107 kcal/mol and 115 kcal/mol.
Take I74T: the “change of melting temperature, mutant” value is -12.5 °C; the “heat capacity change of unfolding” value was 1.08 kcal/mol/K; the “unfolding enthalpy (calorimetric)” value is 102 kcal/mol; the “unfolding enthalpy (van 't Hoff)” value was found to be 108 kcal/mol.
With I74G, the Tm was determined as 62.2 °C and the “change of melting temperature, mutant” value is -2.7 °C.
I74L: the Tm is 64.6 °C and 64.9 °C; the “change of melting temperature, mutant” value was -0.3 °C; the “heat capacity change of unfolding” value came to 1.41 kcal/mol/K; the “unfolding enthalpy (calorimetric)” value came out at 107 kcal/mol. The “unfolding enthalpy (van 't Hoff)” value was 119 kcal/mol.
Turning to I74F, the “change of melting temperature, mutant” value is -15 °C; the “heat capacity change of unfolding” value came out at 1.82 kcal/mol/K; the “unfolding enthalpy (calorimetric)” value was determined as 102 kcal/mol; the “unfolding enthalpy (van 't Hoff)” value stood at 106 kcal/mol.
Turning to I74A, the Tm worked out at 64.9 °C.
In the case of I77F, the midpoint of thermal melting (Tm) is 64.9 °C.
In the case of I77M, the Tm is 60.7 °C and 64.9 °C; the “change of melting temperature, mutant” value was -4.2 °C; the “heat capacity change of unfolding” value was 1.27 kcal/mol/K; the “unfolding enthalpy (calorimetric)” value is 106 kcal/mol. For the same variant, the “unfolding enthalpy (van 't Hoff)” value worked out at 115 kcal/mol.

The same data set, now with this note: Homo sapiens; pH 2.54; Thermal; DSC; glycine 0.05 M; reversible: yes; structure 1LZ1; whole UniProt chain shown.
As for I74M, the Tm came to 56.3 °C, the “heat capacity change of unfolding” value was determined as 1.39 kcal/mol/K, the “unfolding enthalpy (calorimetric)” value is 92.5 kcal/mol and the “unfolding enthalpy (van 't Hoff)” value stood at 103 kcal/mol.
Regarding I77F, the midpoint of thermal melting (Tm) amounted to 59.8 °C, the “heat capacity change of unfolding” value is 1.41 kcal/mol/K, the “unfolding enthalpy (calorimetric)” value amounted to 99.9 kcal/mol and the “unfolding enthalpy (van 't Hoff)” value is 108 kcal/mol.

The same data set, now with this note: Homo sapiens; pH 2.83; Thermal; DSC; glycine 0.05 M; reversible: yes; structure 1LZ1; whole UniProt chain shown.
For the variant I74M, the Tm worked out at 61.3 °C, the “heat capacity change of unfolding” value was determined as 1.72 kcal/mol/K, the “unfolding enthalpy (calorimetric)” value worked out at 101 kcal/mol and the “unfolding enthalpy (van 't Hoff)” value is 110 kcal/mol.

Staying with this data set, now noted: Homo sapiens; pH 3.02; Thermal; DSC; glycine 0.05 M; reversible: yes; structure 1LZ1; whole UniProt chain shown.
For I74M, the Tm is 64.2 °C, the “heat capacity change of unfolding” value worked out at 1.43 kcal/mol/K, the “unfolding enthalpy (calorimetric)” value amounted to 105 kcal/mol and the “unfolding enthalpy (van 't Hoff)” value is 113 kcal/mol.

Still in this data set, the particulars now being: Homo sapiens; pH 3.11; Thermal; DSC; glycine 0.05 M; reversible: yes; structure 1LZ1; whole UniProt chain shown.
On to I74M, for which the Tm worked out at 65.9 °C, the “heat capacity change of unfolding” value stood at 1.53 kcal/mol/K, the “unfolding enthalpy (calorimetric)” value worked out at 107 kcal/mol and the “unfolding enthalpy (van 't Hoff)” value was found to be 116 kcal/mol.

The same data set, now with this note: Homo sapiens; pH 2.48; Thermal; DSC; glycine 0.05 M; reversible: yes; structure 1LZ1; whole UniProt chain shown.
On to I74L, for which the Tm came out at 61.2 °C, the “heat capacity change of unfolding” value was determined as 1.41 kcal/mol/K, the “unfolding enthalpy (calorimetric)” value is 103 kcal/mol and the “unfolding enthalpy (van 't Hoff)” value is 113 kcal/mol.

Still in this data set, the particulars now being: Homo sapiens; pH 2.65; Thermal; DSC; glycine 0.05 M; reversible: yes; structure 1LZ1; whole UniProt chain shown.
Regarding I74L, the Tm is 64 °C, the “heat capacity change of unfolding” value was determined as 1.55 kcal/mol/K, the “unfolding enthalpy (calorimetric)” value is 105 kcal/mol and the “unfolding enthalpy (van 't Hoff)” value is 119 kcal/mol.
As for I77M, the Tm was 59.9 °C, the “heat capacity change of unfolding” value was found to be 1 kcal/mol/K, the “unfolding enthalpy (calorimetric)” value is 98.5 kcal/mol and the “unfolding enthalpy (van 't Hoff)” value came to 108 kcal/mol.

The data set is the same for the next values; noted with them: Homo sapiens; pH 2.96; Thermal; DSC; glycine 0.05 M; reversible: yes; structure 1LZ1; whole UniProt chain shown.
As to I74L, the Tm was determined as 68.7 °C, the “heat capacity change of unfolding” value turned out to be 1.27 kcal/mol/K, the “unfolding enthalpy (calorimetric)” value was 112 kcal/mol and the “unfolding enthalpy (van 't Hoff)” value was 125 kcal/mol.

The data set is the same for the next values; noted with them: Homo sapiens; pH 2.75; Thermal; DSC; glycine 0.05 M; reversible: yes; structure 1LZ1; whole UniProt chain shown.
As to I74F, the midpoint of thermal melting (Tm) turned out to be 50.8 °C, the “heat capacity change of unfolding” value amounted to 1.89 kcal/mol/K, the “unfolding enthalpy (calorimetric)” value amounted to 76 kcal/mol and the “unfolding enthalpy (van 't Hoff)” value was 79.3 kcal/mol.

The data set is the same for the next values; noted with them: Homo sapiens; pH 3.06; Thermal; DSC; glycine 0.05 M; reversible: yes; structure 1LZ1; whole UniProt chain shown.
For the variant I74F, the melting temperature (Tm) was determined as 56.3 °C, the “heat capacity change of unfolding” value was 1.77 kcal/mol/K, the “unfolding enthalpy (calorimetric)” value amounted to 86 kcal/mol and the “unfolding enthalpy (van 't Hoff)” value amounted to 89.6 kcal/mol.

Still in this data set, the particulars now being: Homo sapiens; pH 2.73; Thermal; DSC; glycine 0.05 M; reversible: yes; structure 1LZ1; whole UniProt chain shown.
On to I77F, for which the Tm turned out to be 62.8 °C, the “heat capacity change of unfolding” value is 1.58 kcal/mol/K, the “unfolding enthalpy (calorimetric)” value was 104 kcal/mol and the “unfolding enthalpy (van 't Hoff)” value was found to be 112 kcal/mol.

Still in this data set, the particulars now being: Homo sapiens; pH 2.9; Thermal; DSC; glycine 0.05 M; reversible: yes; structure 1LZ1; whole UniProt chain shown.
For the variant I77F, the Tm turned out to be 65.4 °C, the “heat capacity change of unfolding” value came out at 1.2 kcal/mol/K, the “unfolding enthalpy (calorimetric)” value came out at 108 kcal/mol and the “unfolding enthalpy (van 't Hoff)” value is 116 kcal/mol.

The same data set, now with this note: Homo sapiens; pH 3.05; Thermal; DSC; glycine 0.05 M; reversible: yes; structure 1LZ1; whole UniProt chain shown.
For the variant I77F, the midpoint of thermal melting (Tm) came to 68 °C, the “heat capacity change of unfolding” value is 1.29 kcal/mol/K, the “unfolding enthalpy (calorimetric)” value is 111 kcal/mol and the “unfolding enthalpy (van 't Hoff)” value is 120 kcal/mol.

The same data set, now with this note: Homo sapiens; pH 3.15; Thermal; DSC; glycine 0.05 M; reversible: yes; structure 1LZ1; whole UniProt chain shown.
With I77F, the Tm is 69.8 °C, the “heat capacity change of unfolding” value was determined as 1.36 kcal/mol/K, the “unfolding enthalpy (calorimetric)” value came out at 114 kcal/mol and the “unfolding enthalpy (van 't Hoff)” value was 123 kcal/mol.

Staying with this data set, now noted: Homo sapiens; pH 2.8; Thermal; DSC; glycine 0.05 M; reversible: yes; structure 1LZ1; whole UniProt chain shown.
With I77M, the Tm stood at 62 °C, the “heat capacity change of unfolding” value was 1.2 kcal/mol/K, the “unfolding enthalpy (calorimetric)” value was 103 kcal/mol and the “unfolding enthalpy (van 't Hoff)” value was found to be 110 kcal/mol.

The same data set, now with this note: Homo sapiens; pH 2.95; Thermal; DSC; glycine 0.05 M; reversible: yes; structure 1LZ1; whole UniProt chain shown.
For I77M, the midpoint of thermal melting (Tm) worked out at 64.8 °C, the “heat capacity change of unfolding” value is 1.1 kcal/mol/K, the “unfolding enthalpy (calorimetric)” value came to 106 kcal/mol and the “unfolding enthalpy (van 't Hoff)” value worked out at 114 kcal/mol.

The same data set, now with this note: Homo sapiens; pH 3.13; Thermal; DSC; glycine 0.05 M; reversible: yes; structure 1LZ1; whole UniProt chain shown.
Take I77M: the Tm was determined as 66.5 °C, the “heat capacity change of unfolding” value was determined as 1.15 kcal/mol/K, the “unfolding enthalpy (calorimetric)” value came to 107 kcal/mol and the “unfolding enthalpy (van 't Hoff)” value was found to be 117 kcal/mol.

Values taken from FireProtDB (doi:10.1093/protein/12.10.841).
